Data: patent US20240124586A1 (WUXI BIOLOGICS IRELAND, published 2024)
Where two headings read alike, the source gives them in different places.

What was measured:
[1] = target: T1, human CD3 on CD3+ Jurkat cells (human, UniProt P07766 23-207; P09693 23-182; P04234 22-171); assay: FACS on CD3+ Jurkat cells
T1 construct: whole, on cells; also called CD3 positive Jurkat cells

[2] = target: T1, human CD3 on CD3+ Jurkat cells; assay: FACS on CD3+ Jurkat cells; remark: listed apart in the source
[3] = target: T1, human CD3 on CD3+ Jurkat cells; assay: FACS on CD3+ Jurkat cells; remark: listed apart in the source
[4] = target: T2, cynomolgus CTLA-4 on engineered 293F cells (W316-293F.cynoPro1.F1.Pool) (cynomolgus); assay: FACS binding to cynomolgus CTLA-4 engineered cells
T2 construct: whole, on cells; also called cynomolgus CTLA-4 engineered cells
Protocol: 4-fold titrated Abs with 1% BSA DPBS from 40 μg/ml to 0.00004 μg/ml were added to the cells. Plates were incubated at 4° C. for 1 hour. After wash, […] 1:150 diluted PE-labeled goat anti-human antibody (Jackson 109-115-098) was added to each well and the plates were incubated at 4° C. for 1 hour. The binding of the antibodies onto the cells was tested by flow cytometry and the mean fluorescence intensity (MFI) was analyzed by FlowJo.

[5] = target: cynomolgus CTLA-4 protein (cynomolgus, UniProt G7PL88 36-161, Probably biotinylated for streptavidin-PE detection, as described for the human CTLA-4 reagent in paragraph 775; the letters cannot carry this.); assay: FACS competition: blocks cynomolgus CTLA-4 protein binding to human CD80 engineered cells
Protocol: (§1) Competitive FACS was used to test whether the antibodies could block human or cynomolgus CTLA-4 binding to hCD80 on cell surface. […] Then the mixtures of antibody and CTLA-4 were added to the cells and incubated for 1 hour at 4° C. The cells were washed two times with 200 μl FACS washing buffer (DPBS containing 1% BSA). Streptavidin PE (BD Pharmingen-554061) 1 to 600 diluted in FACS buffer was added to the cells and incubated at 4° C. for 1 hour. Additional washing steps were performed two times with 200 μL FACS washing buffer followed by centrifugation at 1500 rpm for 4 minutes at 4° C. Finally, the cells were resuspended in 100 μL FACS washing buffer and fluorescence values were measured by flow cytometry and analyzed by FlowJo.

[6] = target: T3, biotinylated human CTLA-4.ECD.hFc (W316-hPro1.ECD.hFc.Biotin) (human, UniProt P16410 36-161, biotin-labelled (site not stated)); assay: FACS competition: blocks biotinylated human CTLA-4.ECD.hFc binding to human CD80 engineered cells
T3 construct: extracellular domain; In-house protein; also called hCTLA-4.ECD.hFc-Biotin; human CTLA-4 protein
Protocol: as §1

[7] = target: T4, human CD19 on CD19+ B cell lines (Ramos, Raji) (human, UniProt P15391 20-556); assay: FACS on CD19+ Ramos cells
T4 construct: whole, on cells; also called CD19+ Ramos cells; CD19+ Raji cells
T4 sequence (looked up): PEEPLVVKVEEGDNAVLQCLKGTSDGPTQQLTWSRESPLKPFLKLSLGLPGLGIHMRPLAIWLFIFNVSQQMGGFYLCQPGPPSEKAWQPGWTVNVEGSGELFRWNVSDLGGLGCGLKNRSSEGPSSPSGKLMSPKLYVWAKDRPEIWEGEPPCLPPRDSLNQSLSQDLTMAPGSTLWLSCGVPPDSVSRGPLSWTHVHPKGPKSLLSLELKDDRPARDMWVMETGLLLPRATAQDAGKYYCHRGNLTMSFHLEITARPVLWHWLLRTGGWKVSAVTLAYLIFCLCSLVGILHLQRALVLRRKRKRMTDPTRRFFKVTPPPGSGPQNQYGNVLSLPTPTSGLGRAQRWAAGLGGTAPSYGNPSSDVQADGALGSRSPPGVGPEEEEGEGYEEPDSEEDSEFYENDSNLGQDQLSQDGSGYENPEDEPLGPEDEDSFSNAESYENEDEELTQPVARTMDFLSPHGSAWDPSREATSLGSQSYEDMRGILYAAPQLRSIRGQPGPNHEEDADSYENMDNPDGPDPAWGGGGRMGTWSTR

[8] = target: T4, human CD19 on CD19+ B cell lines …; assay: FACS on CD19+ Ramos cells; remark: listed apart in the source
[9] = target: T4, human CD19 on CD19+ B cell lines …; assay: cell-based or functional assay
[10] = target: T4, human CD19 on CD19+ B cell lines …; assay: flow cytometry on Ramos cells
[11] = target: T1, human CD3 on CD3+ Jurkat cells; assay: flow cytometry on Jurkat cells

T1 sequence (P07766 23-207, chain 1 of 3): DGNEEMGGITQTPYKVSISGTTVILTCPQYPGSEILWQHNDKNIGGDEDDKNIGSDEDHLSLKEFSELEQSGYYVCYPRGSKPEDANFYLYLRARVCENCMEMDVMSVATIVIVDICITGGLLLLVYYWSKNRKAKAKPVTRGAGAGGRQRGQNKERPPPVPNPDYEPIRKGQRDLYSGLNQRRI
T1 sequence (P09693 23-182, chain 2 of 3): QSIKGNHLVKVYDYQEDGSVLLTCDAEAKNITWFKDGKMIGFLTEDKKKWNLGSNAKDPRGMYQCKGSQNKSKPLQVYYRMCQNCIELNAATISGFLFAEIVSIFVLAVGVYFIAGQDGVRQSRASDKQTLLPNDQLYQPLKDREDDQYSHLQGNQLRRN
T1 sequence (P04234 22-171, chain 3 of 3): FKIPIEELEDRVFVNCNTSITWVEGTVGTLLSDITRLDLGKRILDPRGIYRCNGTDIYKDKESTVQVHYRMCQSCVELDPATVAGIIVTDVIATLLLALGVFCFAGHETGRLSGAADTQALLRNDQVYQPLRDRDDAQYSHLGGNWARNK
T3 sequence (P16410 36-161): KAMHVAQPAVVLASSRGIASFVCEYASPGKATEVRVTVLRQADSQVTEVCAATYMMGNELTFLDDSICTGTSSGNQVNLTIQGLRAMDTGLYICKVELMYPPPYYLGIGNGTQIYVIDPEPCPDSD
cynomolgus CTLA-4 protein, sequence (G7PL88 entry or part of it limits assumed): as the sequence (P16410 36-161) above, with S14N, I18T, L106M counted along it

B1: anti-CD3 antibody T3 (wild type, IgG1) (antibody, V domains shown)
VH: QVQLVQSGAEVKKPGSSVKVSCKASGFAFTDYYIHWVRQAPGQGLEWMGWISPGNVNTKYNENFKGRVTITADKSTSTAYMELSSLRSEDTAVYYCARDGYSLYYFDYWGQGTLVTVSS
VL: DIVMTQSPDSLAVSLGERATINCKSSQSLLNSRTRKNYLAWYQQKPGQPPKLLIYWASTRQSGVPDRFSGSGSGTDFTLTISSLQAEDVAVYYCTQSHTLRTFGGGTKVEIK
notes: Human IgG1; also called T3-IgG1; native antibody T3
EC50 (read off the curve) [1]: ~200 pM | EC50 (read off the curve) [2]: ~200 pM

B2: T3-IgG4 (antibody, V domains shown)
VH: QVQLVQSGAEVKKPGSSVKVSCKASGFAFTDYYIHWVRQAPGQGLEWMGWISPGNVNTKYNENFKGRVTITADKSTSTAYMELSSLRSEDTAVYYCARDGYSLYYFDYWGQGTLVTVSS
VL: DIVMTQSPDSLAVSLGERATINCKSSQSLLNSRTRKNYLAWYQQKPGQPPKLLIYWASTRQSGVPDRFSGSGSGTDFTLTISSLQAEDVAVYYCTQSHTLRTFGGGTKVEIK
notes: m1 is the IgG1 form of the same antibody; also called wild type anti-CD3 antibody T3 in IgG4 format
EC50 (read off the curve) [3]: ~50 pM

B3: W3162_1.154.8-z35-IgG1K (antibody, V domains shown)
VH: QVQLVQSGAEVKKPGSSVKVSCKASGYTFTNYFMNWVRQAPGQGLEWMGRVDPEQGRADYAEKFKKRVTITADKSTSTAYMELSSLRSEDTAVYYCARRAMDNYGFAYWGQGTLVTVSS
VL: EIVLTQSPDFQSVTPKEKVTITCSANSALSYMYWYQQKPDQSPKLWVHGTSNLASGVPSRFSGSGSGTDFTLTINSLEAEDAATYYCHHWSNTQWTFGGGTKVEIK
notes: anti-CTLA-4 antibody, parent of the T5 arm; also called W3162_1.154.8-z35 (named T5)
EC50 [4]: 699 pM | Top(MFI) [4]: 10800 MFI | IC50 [5]: 1470 pM | IC50 [6]: 594 pM

B4: anti-CD19 antibody U4 (wild type) (antibody, V domains shown)
VH: QMQLVQSGPEVKKPGTSVKVSCKASGYAFTSYNMYWVRQARGQRLEWIGYIDPYNGDTTYNQKFKGRVTITRDMSTSTAYMELSSLRSEDTAVYYCLTTAYAMDYWGQGTLVTVSS
VL: DIQLTQSPSFLSASVGDRVTITCSASSTVNYMHWYQQKPGKAPKLLIYSTSNLASGVPSRFSGSGSGTEFTLTISSLQPEDFATYYCHQWSSYPYTFGQGTKLEIKR
notes: also called native U4; wild type antibody U4
EC50 (read off the curve) [7]: ~500 pM | EC50 (read off the curve) [8]: ~300 pM

B5: W3438-T3U4.F16-1.uIgG4.SP, bispecific trivalent anti-CD3 x CD19 (bispecific antibody)
heavy 1: QVQLVQSGAEVKKPGSSVKVSCKASGFAFTDYYIHWVRQAPGQGLEWMGWISPGNVNTKYNENFKGRVTITADKSTSTAYMELSSLRSEDTAVYYCARDGYSLYYFDYWGQGTLVTVLEDLKNVFPPEVAVFEPSEAEISHTQKATLVCLATGFYPDHVELSWWVNGKEVHSGVCTDPQPLKEQPALQDSRYALSSRLRVSATFWQNPRNHFRCQVQFYGLSENDEWTQDRAKPVTQIVSAEAWGRYGPPCPPCPAPEFLGGPSVFLFPPKPKDTLMISRTPEVTCVVVDVSQEDPEVQFNWYVDGVEVHNAKTKPREEQFNSTYRVVSVLTVLHQDWLNGKEYKCKVSNKGLPSSIEKTISKAKGQPREPQVYTLPPCQEEMTKNQVSLWCLVKGFYPSDIAVEWESNGQPENNYKTTPPVLDSDGSFFLYSRLTVDKSRWQEGNVFSCSVMHEALHNHYTQKSLSLSLGK
light 1: DIVMTQSPDSLAVSLGERATINCKSSQSLLNSRTRKNYLAWYQQKPGQPPKLLIYWASTRQSGVPDRFSGSGSGTDFTLTISSLQAEDVAVYYCTQSHTLRTFGGGTKVEIKPDIQNPDPAVYQLRDSKSSDKSVCLFTDFDSQTQVSQSKDSDVYITDKCVLDMRSMDFKSNSAVAWSQKSDFACANAFQNSIIPEDTFFPSPESS
heavy 2: QMQLVQSGPEVKKPGTSVKVSCKASGYAFTSYNMYWVRQARGQRLEWIGYIDPYNGDTTYNQKFKGRVTITRDMSTSTAYMELSSLRSEDTAVYYCLTTAYAMDYWGQGTLVTVSSASTKGPSVFPLAPCSRSTSESTAALGCLVKDYFPEPVTVSWNSGALTSGVHTFPAVLQSSGLYSLSSVVTVPSSSLGTKTYTCNVDHKPSNTKVDKRVGGGGSGGGGSQMQLVQSGPEVKKPGTSVKVSCKASGYAFTSYNMYWVRQARGQRLEWIGYIDPYNGDTTYNQKFKGRVTITRDMSTSTAYMELSSLRSEDTAVYYCLTTAYAMDYWGQGTLVTVSSASTKGPSVFPLAPCSRSTSESTAALGCLVKDYFPEPVTVSWNSGALTSGVHTFPAVLQSSGLYSLSSVVTVPSSSLGTKTYTCNVDHKPSNTKVDKRVESKYGPPCPPCPAPEFLGGPSVFLFPPKPKDTLMISRTPEVTCVVVDVSQEDPEVQFNWYVDGVEVHNAKTKPREEQFNSTYRVVSVLTVLHQDWLNGKEYKCKVSNKGLPSSIEKTISKAKGQPREPQVCTLPPSQEEMTKNQVSLSCAVKGFYPSDIAVEWESNGQPENNYKTTPPVLDSDGSFFLVSRLTVDKSRWQEGNVFSCSVMHEALHNHYTQKSLSLSLGK
light 2: DIQLTQSPSFLSASVGDRVTITCSASSTVNYMHWYQQKPGKAPKLLIYSTSNLASGVPSRFSGSGSGTEFTLTISSLQPEDFATYYCHQWSSYPYTFGQGTKLEIKRTVAAPSVFIFPPSDEQLKSGTASVVCLLNNFYPREAKVQWKVDNALQSGNSQESVTEQDSKDSTYSLSSTLTLSKADYEKHKVYACEVTHQGLSSPVTKSFNRGEC
notes: also called F16-Design_2-QQQQ (IgG4)
EC50 of T-cell engaged malignant B cell killing [9]: 5.5 pM | EC50 of cell lysis, CD8+ T cells and Raji cells, 4 hours [9]: 3200 pM | EC50 [10]: 1800 pM | EC50 [11]: 19300 pM | EC50 (read off the curve) [8]: 1000 to 2000 pM
